To fix the notation:
B1: humanized 13F1-hIgG4 (antibody)
heavy: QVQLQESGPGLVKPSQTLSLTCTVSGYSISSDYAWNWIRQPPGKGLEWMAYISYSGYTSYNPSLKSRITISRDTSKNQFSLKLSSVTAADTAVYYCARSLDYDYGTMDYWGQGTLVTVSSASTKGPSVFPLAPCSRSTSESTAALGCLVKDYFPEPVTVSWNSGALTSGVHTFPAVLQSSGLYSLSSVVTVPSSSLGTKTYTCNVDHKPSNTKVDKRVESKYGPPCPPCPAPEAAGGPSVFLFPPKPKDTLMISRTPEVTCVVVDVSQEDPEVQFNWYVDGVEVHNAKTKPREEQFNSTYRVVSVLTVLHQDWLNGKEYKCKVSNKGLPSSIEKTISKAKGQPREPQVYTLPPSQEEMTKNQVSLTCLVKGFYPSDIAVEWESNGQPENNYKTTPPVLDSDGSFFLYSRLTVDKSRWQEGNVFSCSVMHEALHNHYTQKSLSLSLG
light: EIVLTQSPATLSLSPGERATLSCRANSSVSSMHWYQQKPGQSPEPWIYAISNLAFGVPARFSGSGSGTDYTLTISSLEPEDFAVYYCQQWSSRPPTFGQGTKLEIKRTVAAPSVFIFPPSDEQLKSGTASVVCLLNNFYPREAKVQWKVDNALQSGNSQESVTEQDSKDSTYSLSSTLTLSKADYEKHKVYACEVTHQGLSSPVTKSFNRGEC
notes: IgG4 constant region with F234A and L235A, already in the entry; also called h13F1-IgG4; hu-13F1-hIgG4
B2: humanized 13F1-hIgG1 (antibody)
heavy: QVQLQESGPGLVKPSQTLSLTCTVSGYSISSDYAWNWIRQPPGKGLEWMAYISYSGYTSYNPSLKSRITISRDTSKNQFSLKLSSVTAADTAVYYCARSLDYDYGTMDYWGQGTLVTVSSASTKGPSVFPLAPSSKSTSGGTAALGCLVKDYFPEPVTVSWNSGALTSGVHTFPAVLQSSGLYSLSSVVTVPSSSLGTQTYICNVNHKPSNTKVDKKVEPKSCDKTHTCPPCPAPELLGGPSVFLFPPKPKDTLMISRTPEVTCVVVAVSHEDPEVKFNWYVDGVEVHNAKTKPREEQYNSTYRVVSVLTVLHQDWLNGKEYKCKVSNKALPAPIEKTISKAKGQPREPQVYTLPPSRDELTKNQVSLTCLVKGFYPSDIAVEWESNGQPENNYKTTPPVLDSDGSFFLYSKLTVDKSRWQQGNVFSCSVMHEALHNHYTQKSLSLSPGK
light: B1 light
notes: IgG1 constant region with D265A, already in the entry; also called h13F1-IgG1; hu-13F1-hIgG1
B3: humanized 7A4-hIgG1 (antibody)
heavy: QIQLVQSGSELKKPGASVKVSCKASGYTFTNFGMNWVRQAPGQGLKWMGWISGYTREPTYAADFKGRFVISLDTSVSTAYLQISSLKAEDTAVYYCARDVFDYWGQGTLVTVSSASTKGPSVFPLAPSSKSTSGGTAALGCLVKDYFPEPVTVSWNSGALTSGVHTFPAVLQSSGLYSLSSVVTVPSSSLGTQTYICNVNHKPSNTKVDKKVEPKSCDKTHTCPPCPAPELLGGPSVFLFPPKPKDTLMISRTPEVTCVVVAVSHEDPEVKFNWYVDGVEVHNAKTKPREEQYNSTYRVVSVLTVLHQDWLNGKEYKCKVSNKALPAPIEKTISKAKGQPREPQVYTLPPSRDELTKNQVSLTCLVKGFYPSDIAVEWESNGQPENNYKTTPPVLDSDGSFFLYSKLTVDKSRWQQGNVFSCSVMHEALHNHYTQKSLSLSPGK
light: DIVLTQSPASLAVSPGQRATITCRASESVDNYGYSFMNWFQQKPGQPPKLLIYRASNLESGVPARFSGSGSRTDFTLTINPVEANDTANYYCQQSNADPTFGQGTKLEIKRTVAAPSVFIFPPSDEQLKSGTASVVCLLNNFYPREAKVQWKVDNALQSGNSQESVTEQDSKDSTYSLSSTLTLSKADYEKHKVYACEVTHQGLSSPVTKSFNRGEC
notes: IgG1 constant region with D265A, already in the entry; also called h7A4-IgG1; hu-7A4-D265A-hIgG1
B4: humanized 7A4-hIgG4 (antibody)
heavy: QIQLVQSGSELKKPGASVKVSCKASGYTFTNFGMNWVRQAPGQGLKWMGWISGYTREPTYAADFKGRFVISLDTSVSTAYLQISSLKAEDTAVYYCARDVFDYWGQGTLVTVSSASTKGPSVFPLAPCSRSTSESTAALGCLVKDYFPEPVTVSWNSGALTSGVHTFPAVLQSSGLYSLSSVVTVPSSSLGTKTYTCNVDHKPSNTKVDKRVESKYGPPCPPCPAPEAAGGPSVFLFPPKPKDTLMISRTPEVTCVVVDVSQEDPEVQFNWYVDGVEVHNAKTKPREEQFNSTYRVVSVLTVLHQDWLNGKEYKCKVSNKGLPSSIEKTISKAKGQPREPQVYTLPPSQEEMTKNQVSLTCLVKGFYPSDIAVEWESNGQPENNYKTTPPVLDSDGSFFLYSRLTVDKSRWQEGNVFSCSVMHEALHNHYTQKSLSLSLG
light: B3 light
notes: IgG4 constant region with F234A and L235A, already in the entry; also called h7A4-IgG4; 7A4-huIgG4
B5: humanized 7A4D-hIgG4 (antibody, V domains shown)
VH: QIQLVQSGSELKKPGASVKVSCKASGYTFTNFGMNWVRQAPGQGLKWMGWISGYTREPTYAADFKGRFVISLDTSVSTAYLQISSLKAEDTAVYYCARDVFDYWGQGTLVTVSS
VL: DIVLTQSPASLAVSPGQRATITCRASESVDNYGYSFMNWFQQKPGQPPKLLIYRASNLESGVPARFSGSGSRTDFTLTINPVEADDTANYYCQQSNADPTFGQGTKLEIKR
notes: also called h7A4D

T1 sequence (chain, as listed by the source limits assumed): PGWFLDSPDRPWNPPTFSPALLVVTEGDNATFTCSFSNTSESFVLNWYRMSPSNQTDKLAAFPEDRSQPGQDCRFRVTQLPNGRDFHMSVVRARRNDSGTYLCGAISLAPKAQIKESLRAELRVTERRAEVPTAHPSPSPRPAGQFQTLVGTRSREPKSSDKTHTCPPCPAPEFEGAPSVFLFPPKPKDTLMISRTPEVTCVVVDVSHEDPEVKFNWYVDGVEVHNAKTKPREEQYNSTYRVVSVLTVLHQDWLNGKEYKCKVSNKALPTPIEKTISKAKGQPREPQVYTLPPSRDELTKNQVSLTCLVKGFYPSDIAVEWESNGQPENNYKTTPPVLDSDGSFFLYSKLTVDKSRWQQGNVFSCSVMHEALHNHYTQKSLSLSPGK
T2 sequence (Q15116 25-167 limits assumed): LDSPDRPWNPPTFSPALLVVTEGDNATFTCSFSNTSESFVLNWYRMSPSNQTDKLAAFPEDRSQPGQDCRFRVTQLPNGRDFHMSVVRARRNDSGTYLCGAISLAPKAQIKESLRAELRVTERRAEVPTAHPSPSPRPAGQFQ
T3 sequence (Q15116 25-170): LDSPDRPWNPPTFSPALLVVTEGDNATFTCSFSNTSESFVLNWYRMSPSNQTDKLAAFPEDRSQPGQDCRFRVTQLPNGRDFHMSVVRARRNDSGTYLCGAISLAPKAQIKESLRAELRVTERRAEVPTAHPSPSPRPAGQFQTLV

One assay concerns the target T1, human PD-1 extracellular domain fused with human Fc tag (hPD-1-hFc) (human).
T1 construct: also called human PD-1-hFc
In words: ELISA binding to plate-bound PD-1, OD450 (methods similar to Example 2: plate coated with PD1-hFc). As for the experimental part: ELISA binding analysis was conducted based on human PD-1-hFc Protein. 96-well plates (Costar, Cat No:9018) were coated with 100 μL of 2 μg/ml PD1-hFc (CrownBio) in coating buffer (PBS, Hyclone, Cat No:SH30256.01B) overnight at 4° C. The wells were aspirated and non-specific binding sites were blocked by adding 200 μL of blocking buffer with 1% (w/v) of bovine serum albumin (BSA, Roche, Cat No: 738328) and incubating for 1 hour at 37° C. After the plates are washed three times with wash buffer (PBS with 0.05%(v/v) Tween20 (Sigma, Cat No:P1379), 100 μL/well of a suitable dilutions of hybridoma supernatant in blocking buffer were added and incubated at room temperature for 1 hour. The plates were washed and incubated with 100 μL/well of Goat anti-Mouse IgG (H+L) (Thermo, Cat No: 31432) in blocking buffer for 60 min. After the plates were washed, 100 μL/well of substrate solution (TMB(eBioscience, Cat No:00-4201-56) was added and the plates were incubated for 2min at room temperature. 100 μL/well of stop solution (2N H2SO4) was added to stop the reaction. The colorimetric signals were developed and read at 450 nm using a Auto Plate SpectraMax Plus (Supplier: Molecular Devices; Model: MNR0643; Software: SoftMax Pro v5.4).
In the case of B1, the half-maximal effective concentration (EC50) (as a rule, the concentration giving half of the maximal effect) came out at 0.031 µg/mL.

For the molecule B2, the EC50 was 0.0357 µg/mL.

B3 registered a concentration for a half-maximal effect (EC50) of 0.0331 µg/mL. The EC50 values of the last two molecules are within 1.5-fold of each other.

For the molecule B4, the concentration for a half-maximal effect (EC50) came to 0.0707 µg/mL.

A further assay addresses T2, human PD-1 (construct not stated) (human, UniProt Q15116 25-167, limits assumed).
T2 construct: also called PD-1 analyte
Put plainly: SPR (Biacore 3000), antibody captured on the chip, PD-1 as analyte, 1:1 Langmuir fit. As to the method: To characterize the binding characteristics of the humanized antibodies, the binding kinetics between PD-1 and PD-1 antibodies were measured by Biacore3000 and recorded with a data collection rate of 1 Hz. The polyclonal rabbit anti-mouse IgG (GE, BR-1008-38) was diluted with 10 mM pH 5.0 sodium acetate and immobilized onto reference and experiment flow cells of a CMS biosensor chip to around 15000 RU using an amine coupling kit (GE, BR10050). In the beginning of each cycle, diluted test antibody (1.5 μg/mL) was injected over experiment flow cell for 1 minute to be captured. PD-1 analyte series were prepared by diluting the stocks with running buffer to 100nM followed by 2× serial dilution in the same buffer down to 0.78nM. Analytes were injected in series over the reference and experiment flow cells for 3 minutes at a flow rate of 30 μL/minute. Then running buffer (PBS with 0.05% P20) was allowed to flow over for 10 minutes at a flow rate of 30 μL/minute. At the end of each cycle, the biosensor surface was regenerated with 3 minutes injection of 10 mM pH1.7 Glycine-HC1 buffer at a flow rate of 10 μL/minute. For each analyte sample injection (i.e. each cycle), binding responses obtained from the experimental biosensor surface were double referenced by subtracting simultaneously recorded responses from the reference surface followed by additional subtraction of responses from a single referenced running buffer sample. The association and dissociation rate constants (ka and kd) were determined simultaneously by fitting double-referenced sensorgrams of the entire titration series to Langmuir model (1:1) using Biaevaluation 4.0 software. The dissociation constant, KD, was calculated from the determined rate constants by the relation KD =kd/ka. […] The Biocore binding curves are shown in FIGS. 10 and 17A, top panel, and the quantified binding data are summarized in FIGS. 10 and 17A, bottom panel.
With B1, the Ka worked out at 5.78e+09 M⁻¹; binding was put at a Kd of 173 pM; the off-rate (koff) (commonly the first-order rate constant of dissociation) is 0.000119 s⁻¹; the kon (as a rule, a measure of how fast the partners come together) is 687000 M⁻¹ s⁻¹.

Turning to B3, the Ka is 9.82e+09 M⁻¹; the dissociation constant (Kd) (in general, the constant that tells how readily two partners part at equilibrium) came out at 102 pM; the koff amounted to 0.000212 s⁻¹; the association rate constant (kon) was determined as 2.09e+06 M⁻¹ s⁻¹.

B5: the Ka is 2.55e+09 M⁻¹; the affinity, expressed as Kd, was 391 pM; the off-rate constant (koff) is 0.000532 s⁻¹; the kon was found to be 1.36e+06 M⁻¹ s⁻¹.

The molecule B4 returned a Ka of 2.93e+09 M⁻¹, an equilibrium dissociation constant (Kd) of 342 pM, a koff of 0.000498 s⁻¹ and an association rate constant (kon) of 1.46e+06 M⁻¹ s⁻¹.

The next assay has as its target T3, human PD-1 extracellular domain fused with mouse Fc (PD-1-mFc) (human, UniProt Q15116 25-170).
T3 construct: extracellular domain; not used because of the label; also called hPD-1-mFc; human PD-1-mouse Fc fusion protein
Put plainly: ELISA ligand blockage: biotinylated PD-L1-mFc binding to plate-bound PD-1, OD450 (methods similar to Example 2: PD-1-mFc coated). As to the method:
PD-1-mFc antigen (CrownBio) was suspended in PBS (Hyclone,Cat No:SH30256.01B) buffer (2 ug/ml, 100 ul/ well) and coated on the 96 well plate (costar, Cat No.:9018) 4° C. overnight. Plates were washed 3 times using washing buffer: PBS+0.05% Tween 20(Sigma, Cat No.:P1379). 200 ul of blocking buffer (PBS+1%BSA(Roche, Cat No.:738328)), was added to each well, incubated at 37° C. for 1 hour, and washed 3 times. Various concentrations (suitable dilutions of hybridoma supernatant in PBS) of the anti-PD-1 Abs were added to the wells (100 μl/well) and incubated at 37° C. for 1 hour. […] Secondary antibody (Avidin HRP eBioscience cat No.:E07418-1632, 1:500, 100 ul/well) was added, incubated at 37 ° C. for 0.5 hour, and washed 3 times. TMB (Sigma, Cat No.: T0440, 100 ul/well) was added, and incubated for 3 min at RT. To stop the reaction, 2N H2SO4 (100 ul/well), was added. The colorimetric signals were developed and read at 450 nm using a Auto Plate SpectraMax Plus (Supplier: Molecular Devices; Model: MNR0643; Software: SoftMax Pro v5.4).
As to B1, the IC50 (as a rule, the midpoint of a concentration-inhibition curve) was determined as 0.579 µg/mL.

With B2, the IC50 was 0.985 µg/mL.

Turning to B3, the IC50 was 0.763 µg/mL.

On to B4, for which the IC50 amounted to 0.886 µg/mL.

In the next assay the target is T4, human PD-1 on cells (293T cells transfected with human PD-1) (human, UniProt Q15116 25-288).
T4 construct: whole, on cells; Also used as the target for the functional rows, where PD-1 stands on human T cells
T4 sequence (Q15116 25-288): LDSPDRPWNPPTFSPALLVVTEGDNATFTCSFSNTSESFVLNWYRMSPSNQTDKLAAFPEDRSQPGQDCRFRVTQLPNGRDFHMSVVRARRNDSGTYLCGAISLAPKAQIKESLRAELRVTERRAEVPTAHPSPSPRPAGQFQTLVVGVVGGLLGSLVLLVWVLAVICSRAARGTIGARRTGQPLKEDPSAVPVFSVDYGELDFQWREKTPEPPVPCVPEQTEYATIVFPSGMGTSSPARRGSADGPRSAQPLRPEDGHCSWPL
Put plainly: FACS ligand blockage: biotin-labeled PD-L1 binding to 293T cells expressing human PD-1, MFI. As for the experimental part: Various concentrations of the testing hybridoma antibodies were added to the cell suspension and incubated at 4° C. for 60 minutes in 96 well plates. […] Plates were washed 3 times, and mouse anti-biotin PE antibody (Biolgend, cat# 409004) was added. Flow cytometric analyses were performed using a FACS Array.
In turn, B1 yielded a 50% inhibitory concentration (IC50) of 0.026 µg/mL.

Molecule B2 returned an IC50 of 0.0295 µg/mL.

B3 yielded an IC50 of 0.00761 µg/mL. This IC50 lies about 3.9-fold lower than the previous one.

B4: the 50% inhibitory concentration (IC50) amounted to 0.0169 µg/mL.

The next assay has as its target T4, human PD-1 on cells (293T cells …). Put plainly: FACS binding to 293T cells expressing human PD-1, MFI. As for the experimental part:
The cells were incubated with the indicated antibody (20 ug/ml with the dilution of ⅕) at 4° C. for 1 h. Cells were washed three times with FACS buffer. A secondary antibody (PE Goat anti-mouse: 1:200; PE mouse anti-human: 1:10) was added to the cells at 100 ul/well, and incubated at 4° C. for 40min. Cells were washed three times with FACS buffer and analyzed by FACS Array.
In turn, B1 returned an EC50 of 0.0763 µg/mL.

For the molecule B2, it took 0.0668 µg/mL to reach a half-maximal effect (EC50).

Turning to B3, the EC50 is 0.0332 µg/mL.

B4 gave a concentration giving a half-maximal response (EC50) of 0.0621 µg/mL.

A further assay shares this target. In words: FACS ligand blockage: PD-L1 binding to 293T-PD1 cells.
Turning to B5, the IC50 is 0.0258 µg/mL.

The record behind these values is patent US20170267762A1 (APOLLOMICS, published 2017).
